{"source": "patent CN114989295A", "binders": {"B1": {"name": "抗MERS-CoV鼠单克隆抗体6E4 (antibody, V domains shown)", "VH": "EVDLSESLGGQVKVTGSLKLDEAASGSMHGGDVKEGASLWLWVRVTPEIELEWRDAQGVAFISAGESSTYRFTTSRDNARSDRYLQMSELRKLDTAFIYCGRYRVTLSTLQEYSWGQGDWVTTDA", "VL": "DIQETQTRSVLSAALGSRVTISCSMDIANYVNEYQWYQSPKPDFDVKLSIYEVLIYRSVRLQSGVPSRFSKKGSLDDYSLTISCFEPEDVEIYCNDCQILGSELPEFGDFTKIEILR"}, "B2": {"name": "抗MERS-CoV鼠单克隆抗体7G5 (antibody, V domains shown)", "VH": "EVQGQVSGLKLVVEGASVLKSCTSTGFLSGMGLVMPGGSNHSWVQEVPEIVLEWSGDWSANYSQDGLITSKATASADTTDSTAYLQLSEFDSEDTAVSFSCASNWLMLYMASLNWGQGEDDTVQS", "VL": "DISLTRSPSTLSATPQESVSLSCKQLISSYLMWTQWYQSKSHESLELTEKVELIYSNSHLHTGIPFSFSGDDSGTDFFLKVNVNSTEDFGEYFCSCQDQNTSERGDFGQATKLLEK"}}, "molecular_target": "重组MERS-CoV-S蛋白 (MERS-CoV) (UniProt K9N5Q8)", "sequence (K9N5Q8 324-644 limits assumed)": "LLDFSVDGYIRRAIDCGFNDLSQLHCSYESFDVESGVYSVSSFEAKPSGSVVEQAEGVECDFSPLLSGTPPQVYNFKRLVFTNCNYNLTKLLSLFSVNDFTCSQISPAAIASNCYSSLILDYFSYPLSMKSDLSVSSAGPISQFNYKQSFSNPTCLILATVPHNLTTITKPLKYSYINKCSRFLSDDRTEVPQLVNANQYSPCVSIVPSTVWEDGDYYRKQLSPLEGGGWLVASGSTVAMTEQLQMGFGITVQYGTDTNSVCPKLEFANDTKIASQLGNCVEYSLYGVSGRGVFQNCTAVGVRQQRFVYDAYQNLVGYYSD", "experiment": "indirect ELISA, hybridoma supernatant on coated MERS-S protein", "data": [{"binder": "B1", "values": [{"measurement": "效价 (titer (1:dilution))", "result": 256000}, {"measurement": "敏感性", "result": 2.31, "unit": "ng/mL"}]}, {"binder": "B2", "values": [{"measurement": "效价 (titer (1:dilution))", "result": 256000}, {"measurement": "敏感性", "result": 0.561, "unit": "ng/mL"}]}]}
